Molecular target: α-synuclein (α-syn) 1-140 (UniProt P37840)
Test: WT-PFF-seeded ThT fibrillation kinetics, NS-TEM
Settings: reference: unmodified WT monomer plus WT PFF; sites S87

binding against the reference: weaker
Substance: α-synuclein (α-syn) 1-140 (from UniProt P37840) pS87 monomer plus WT PFF
